Data from publication PMC3556779.

Biological target: FKBP1A (UniProt P62942)
Experiment: co-precipitation from transfected Jurkat cells
Details: reference: WT TGFβRI; sites T200

TGFβRI (from UniProt P36897) T200V TGFβRI
binding against the reference: stronger
